From patent US20210253718A1 (MODMAB THERAPEUTICS, published 2021)
Each block holds one binder with its values, some of them ahead of it.

Assays:
FZD8-Fc = target: T1, FZD8-Fc (UniProt Q9H461 28-158, limits assumed); assay: SPR, Frizzled-Fc chimera;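 further: binding targets are Fc fusions carrying an extracellular Frizzled fragment that contains the CRD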
T1 construct: extracellular domain; also called Frizzled-Fc chimera (FZD8); not shown: Fc part
T1 sequence (looked up): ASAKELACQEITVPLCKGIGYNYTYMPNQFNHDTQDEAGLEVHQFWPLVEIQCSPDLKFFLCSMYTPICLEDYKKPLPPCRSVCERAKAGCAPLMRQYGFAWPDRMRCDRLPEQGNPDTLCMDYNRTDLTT

[1] = target: T2, recombinant human FZD5-Fc chimera (R&D Systems, Catalog no. 1617-FZ) (human, UniProt Q13467 27-167); assay: SPR, Frizzled-Fc chimera;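 further: binding targets are Fc fusions carrying an extracellular Frizzled fragment that contains the CRD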
T2 construct: used for selection and ELISA; Fc part of the bought chimera not given
T2 sequence: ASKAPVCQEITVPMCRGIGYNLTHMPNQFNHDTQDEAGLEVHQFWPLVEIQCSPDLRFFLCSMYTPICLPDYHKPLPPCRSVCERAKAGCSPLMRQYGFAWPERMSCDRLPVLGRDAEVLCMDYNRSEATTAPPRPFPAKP

[2] = target: T3, FZD3 cysteine-rich domain (CRD), MYC-tagged and GPI-anchored on CHO cells (human, UniProt Q9NPG1 24-150, GPI anchor); assay: immunofluorescence, CHO-CRD cells
T3 construct: domain: cysteine-rich domain (CRD); also called FZD3 CRD; CHO-myc-FZDGPI; not shown: MYC tag and GPI anchor signal
T3 sequence (looked up): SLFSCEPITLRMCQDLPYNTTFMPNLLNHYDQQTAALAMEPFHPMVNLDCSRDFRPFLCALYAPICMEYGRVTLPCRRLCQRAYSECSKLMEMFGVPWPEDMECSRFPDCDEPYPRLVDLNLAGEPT

[3] = target: T4, FZD6 cysteine-rich domain (CRD), MYC-tagged and GPI-anchored on CHO cells (human, UniProt O60353 20-146, GPI anchor); assay: immunofluorescence, CHO-CRD cells
T4 construct: also called FZD6 CRD; CHO-myc-FZDGPI; not shown: MYC tag and GPI anchor signal
T4 sequence: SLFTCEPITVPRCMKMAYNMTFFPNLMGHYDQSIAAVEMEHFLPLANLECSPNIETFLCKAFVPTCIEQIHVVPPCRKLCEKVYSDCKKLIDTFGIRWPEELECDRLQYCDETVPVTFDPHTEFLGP

[4] = target: T5, FZD4 cysteine-rich domain (CRD), MYC-tagged and GPI-anchored on CHO cells (human, UniProt Q9ULV1 42-167, GPI anchor); assay: immunofluorescence, CHO-CRD cells
T5 construct: also called FZD4 CRD; CHO-myc-FZDGPI; not shown: MYC tag and GPI anchor signal
T5 sequence: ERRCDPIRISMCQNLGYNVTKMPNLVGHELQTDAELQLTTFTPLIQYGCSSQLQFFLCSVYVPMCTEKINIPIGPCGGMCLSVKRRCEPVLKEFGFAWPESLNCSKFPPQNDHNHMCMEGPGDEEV

[5] = target: T6, FZD10 cysteine-rich domain (CRD), MYC-tagged and GPI-anchored on CHO cells (human, UniProt Q9ULW2 30-156, GPI anchor); assay: immunofluorescence, CHO-CRD cells
T6 construct: also called FZD10 CRD; CHO-myc-FZDGPI; not shown: MYC tag and GPI anchor signal
T6 sequence: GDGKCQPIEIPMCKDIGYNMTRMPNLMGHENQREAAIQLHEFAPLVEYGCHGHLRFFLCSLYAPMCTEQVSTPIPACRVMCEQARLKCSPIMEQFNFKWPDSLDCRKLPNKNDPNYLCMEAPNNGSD

[6] = target: T7, FZD9 cysteine-rich domain (CRD), MYC-tagged and GPI-anchored on CHO cells (human, UniProt O00144 35-161, GPI anchor); assay: immunofluorescence, CHO-CRD cells
T7 construct: also called FZD9 CRD; CHO-myc-FZDGPI; not shown: MYC tag and GPI anchor signal
T7 sequence: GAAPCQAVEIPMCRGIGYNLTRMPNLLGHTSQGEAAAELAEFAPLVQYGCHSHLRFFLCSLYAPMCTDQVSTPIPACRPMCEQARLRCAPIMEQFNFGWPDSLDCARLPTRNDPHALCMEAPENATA

[7] = target: T3, FZD3 cysteine-rich domain (CRD), …; assay: flow cytometry, CHO-CRD cells;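 further: flow cytometry of Fab binding to CHO cells overexpressing a Frizzled CRD, with binding defined as median fluorescence over twice that of CHO cells lacking any Frizzled CRD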
[8] = target: FZD2 cysteine-rich domain (CRD), MYC-tagged and GPI-anchored on CHO cells (human, UniProt Q14332 35-161); assay: flow cytometry, CHO-CRD cells;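 further: flow cytometry of Fab binding to CHO cells overexpressing a Frizzled CRD, with binding defined as median fluorescence over twice that of CHO cells lacking any Frizzled CRD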
[9] = target: T4, FZD6 cysteine-rich domain (CRD), …; assay: flow cytometry, CHO-CRD cells;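 further: flow cytometry of Fab binding to CHO cells overexpressing a Frizzled CRD, with binding defined as median fluorescence over twice that of CHO cells lacking any Frizzled CRD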
[10] = target: T5, FZD4 cysteine-rich domain (CRD), …; assay: flow cytometry, CHO-CRD cells;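 further: flow cytometry of Fab binding to CHO cells overexpressing a Frizzled CRD, with binding defined as median fluorescence over twice that of CHO cells lacking any Frizzled CRD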
[11] = target: T6, FZD10 cysteine-rich domain (CRD), …; assay: flow cytometry, CHO-CRD cells
[12] = target: FZD7 cysteine-rich domain (CRD), MYC-tagged and GPI-anchored on CHO cells (human, UniProt O75084 45-169); assay: flow cytometry, CHO-CRD cells
[13] = target: T7, FZD9 cysteine-rich domain (CRD), …; assay: flow cytometry, CHO-CRD cells
[14] = target: T8, FZD5 cysteine-rich domain (CRD), MYC-tagged and GPI-anchored on CHO cells (human, UniProt Q13467 29-156, GPI anchor); assay: flow cytometry, CHO-CRD cells
T8 construct: also called FZD5 CRD; CHO-myc-FZDGPI; not shown: MYC tag and GPI anchor signal
T8 sequence: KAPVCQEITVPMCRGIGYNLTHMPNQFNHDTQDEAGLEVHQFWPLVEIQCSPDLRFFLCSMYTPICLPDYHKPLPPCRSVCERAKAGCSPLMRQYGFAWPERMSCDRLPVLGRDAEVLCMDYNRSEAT

[15] = target: FZD1 cysteine-rich domain (CRD), MYC-tagged and GPI-anchored on CHO cells (human); assay: flow cytometry, CHO-CRD cells
[16] = target: T9, FZD8 cysteine-rich domain (CRD), MYC-tagged and GPI-anchored on CHO cells (human, UniProt Q498S8 31-155 (rat entry), GPI anchor); assay: flow cytometry, CHO-CRD cells
T9 construct: also called FZD8 CRD; CHO-myc-FZDGPI; not shown: MYC tag and GPI anchor signal
T9 sequence: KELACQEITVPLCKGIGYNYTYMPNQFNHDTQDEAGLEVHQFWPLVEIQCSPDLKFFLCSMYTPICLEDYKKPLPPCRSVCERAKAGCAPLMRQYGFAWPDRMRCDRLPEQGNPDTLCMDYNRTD

B1: IgG-2921 (antibody, V domains shown)
VH: EVQLVESGGGLVQPGGSLRLSCAASGFNISYYYIHWVRQAPGKGLEWVASIYPSSGSTSYADSVKGRFTISADTSKNTAYLQMNSLRAEDTAVYYCARGAMDYWGQGTLVTVSS
VL: DIQMTQSPSSLSASVGDRVTITCRASQSVSSAVAWYQQKPGKAPKLLIYSASSLYSGVPSRFSGSRSGTDFTLTISSLQPEDFATYYCQQWYAGSLITFGQGTKVEIK
Kd (FZD8-Fc): 0.0244 nM | koff (FZD8-Fc): 2.71e-05 s⁻¹ | kon (FZD8-Fc): 1.11e+06 M⁻¹ s⁻¹ | Kd [1]: 0.106 nM | koff [1]: 9.81e-05 s⁻¹ | kon [1]: 922000 M⁻¹ s⁻¹

B3: IgG-2910 (antibody, V domains shown)
VH: EVQLVESGGGLVQPGGSLRLSCAASGFNISYSYMHWVRQAPGKGLEWVASIYSSSSSTSYADSVKGRFTISADTSKNTAYLQMNSLRAEDTAVYYCARGAMDYWGQGTLVTVSS
VL: DIQMTQSPSSLSASVGDRVTITCRASQSVSSAVAWYQQKPGKAPKLLIYSASSLYSGVPSRFSGSRSGTDFTLTISSLQPEDFATYYCQQWYGSHLITFGQGTKVEIK
Kd (FZD8-Fc): 0.0427 nM | koff (FZD8-Fc): 2.28e-05 s⁻¹ | kon (FZD8-Fc): 533000 M⁻¹ s⁻¹ | Kd [1]: 0.115 nM | koff [1]: 0.000174 s⁻¹ | kon [1]: 1.52e+06 M⁻¹ s⁻¹

B5: Fab-2916 (Fab, V domains shown)
VH: EVQLVESGGGLVQPGGSLRLSCAASGFNISYSSIHWVRQAPGKGLEWVASIYPSYSYTYYADSVKGRFTISADTSKNTAYLQMNSLRAEDTAVYYCARYGYYGMDYWGQGTLVTVSS
VL: DIQMTQSPSSLSASVGDRVTITCRASQSVSSAVAWYQQKPGKAPKLLIYSASSLYSGVPSRFSGSRSGTDFTLTISSLQPEDFATYYCQQWYHYPYLITFGQGTKVEIK
notes: Fab
binding result [2]: no binding | binding result [3]: no binding | binding result [4]: no binding | binding result [5]: no binding | binding result [6]: no binding | median fluorescence [7]: 4.53 | median fluorescence [8]: 18.9 | median fluorescence [9]: 3.49 | median fluorescence [10]: 6.1 | median fluorescence [11]: 2.94 | median fluorescence [12]: 36.2 | median fluorescence [13]: 3.52 | median fluorescence [14]: 24.1 | median fluorescence [15]: 34.3 | median fluorescence [16]: 7.37

Results, then the binder that gave them:

Kd (FZD8-Fc): 0.0427 nM | koff (FZD8-Fc): 2.28e-05 s⁻¹ | kon (FZD8-Fc): 533000 M⁻¹ s⁻¹ | Kd [1]: 0.194 nM | koff [1]: 8.06e-05 s⁻¹ | kon [1]: 416000 M⁻¹ s⁻¹
B2: IgG-2919 (antibody, V domains shown)
VH: EVQLVESGGGLVQPGGSLRLSCAASGFNISYSYIHWVRQAPGKGLEWVASIYSSSGSTSYADSVKGRFTISADTSKNTAYLQMNSLRAEDTAVYYCARGAIDYWGQGTLVTVSS
VL: DIQMTQSPSSLSASVGDRVTITCRASQSVSSAVAWYQQKPGKAPKLLIYSASSLYSGVPSRFSGSRSGTDFTLTISSLQPEDFATYYCQQWYSSGHVLITFGQGTKVEIKR
notes: human IgG1 heavy chain (hG1), human kappa light chain (hK)

Kd (FZD8-Fc): 0.056 nM | koff (FZD8-Fc): 0.000238 s⁻¹ | kon (FZD8-Fc): 4.25e+06 M⁻¹ s⁻¹ | Kd [1]: 0.0883 nM | koff [1]: 0.000317 s⁻¹ | kon [1]: 3.59e+06 M⁻¹ s⁻¹
B4: IgG-2920 (antibody, V domains shown)
VH: EVQLVESGGGLVQPGGSLRLSCAASGFNISYYYIHWVRQAPGKGLEWVASIYPSSGSTSYADSVKGRFTISADTSKNTAYLQMNSLRAEDTAVYYCARGGMDYWGQGTLVTVSS
VL: DIQMTQSPSSLSASVGDRVTITCRASQSVSSAVAWYQQKPGKAPKLLIYSASSLYSGVPSRFSGSRSGTDFTLTISSLQPEDFATYYCQQWFAGALITFGQGTKVEIK

kon (FZD8-Fc): 3.27e+06 M⁻¹ s⁻¹ | kon [1]: 2.77e+06 M⁻¹ s⁻¹
B6: IgG-2929 (antibody, V domains shown)
VH: EVQLVESGGGLVQPGGSLRLSCAASGFNISYYYIHWVRQAPGKGLEWVASIYPSSSSTSYADSVKGRFTISADTSKNTAYLQMNSLRAEDTAVYYCARGAMDYWGQGTLVTVSS
VL: DIQMTQSPSSLSASVGDRVTITCRASQSVSSAVAWYQQKPGKAPKLLIYSASSLYSGVPSRFSGSRSGTDFTLTISSLQPEDFATYYCQQWYSSYGLITFGQGTKVEIK
notes: also called Fv-2929

binding result [2]: no binding | binding result [3]: no binding | binding result [4]: no binding | binding result [5]: no binding | binding result [6]: no binding | median fluorescence [7]: 4.45 | median fluorescence [8]: 17.9 | median fluorescence [9]: 3.05 | median fluorescence [10]: 5.94 | median fluorescence [11]: 3.31 | median fluorescence [12]: 16.7 | median fluorescence [13]: 3.85 | median fluorescence [14]: 28.3 | median fluorescence [15]: 18.7 | median fluorescence [16]: 10.3
B7: Fab-2927 (Fab, V domains shown)
VH: EVQLVESGGGLVQPGGSLRLSCAASGFNIYYSSMHWVRQAPGKGLEWVASIYPSYGYTSYADSVKGRFTISADTSKNTAYLQMNSLRAEDTAVYYCARYGYYGFDYWGQGTLVTVSS
VL: DIQMTQSPSSLSASVGDRVTITCRASQSVSSAVAWYQQKPGKAPKLLIYSASSLYSGVPSRFSGSRSGTDFTLTISSLQPEDFATYYCQQWGSHGYLITFGQGTKVEIK
notes: Fab; also called Fv-2927
